Data reported in publication PMC8380825 (Journal of molecular biology, 2021).
“And” between values parts separate entries of the source, which are not always exact repeats. Equal values may be shown once. Read-outs that look alike come from different tables or passages of the source. Each block holds one molecule with its values, some of them ahead of it. Where no end group is shown, it is not given here. TAMRA = 5(6)-carboxytetramethylrhodamine

Columns and labels:
NPR-1 [1] = biological target: T1, NPR-1 (Caenorhabditis elegans, UniProt Q18534); assay: cAMP reporter gene assay; format: cell-based, C. elegans; details: wild type NPR-1
T1 sequence (Q18534 1-457): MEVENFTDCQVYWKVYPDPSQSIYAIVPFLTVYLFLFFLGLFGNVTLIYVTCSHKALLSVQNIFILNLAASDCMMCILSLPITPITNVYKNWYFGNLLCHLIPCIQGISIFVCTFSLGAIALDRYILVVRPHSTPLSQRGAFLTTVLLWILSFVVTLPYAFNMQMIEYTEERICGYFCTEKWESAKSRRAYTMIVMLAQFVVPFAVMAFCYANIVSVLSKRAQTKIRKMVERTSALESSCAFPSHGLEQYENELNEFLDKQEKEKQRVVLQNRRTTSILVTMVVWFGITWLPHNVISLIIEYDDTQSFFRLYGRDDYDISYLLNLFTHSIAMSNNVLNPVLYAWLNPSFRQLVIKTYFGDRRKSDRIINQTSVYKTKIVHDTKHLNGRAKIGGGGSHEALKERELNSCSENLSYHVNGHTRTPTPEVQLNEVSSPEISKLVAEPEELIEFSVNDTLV

[2] = biological target: T2, Nluc-NPR-1-eYFP (C. elegans neuropeptide receptor NPR-1, wild type) (C. elegans) (UniProt Q18534)
T2 sequence: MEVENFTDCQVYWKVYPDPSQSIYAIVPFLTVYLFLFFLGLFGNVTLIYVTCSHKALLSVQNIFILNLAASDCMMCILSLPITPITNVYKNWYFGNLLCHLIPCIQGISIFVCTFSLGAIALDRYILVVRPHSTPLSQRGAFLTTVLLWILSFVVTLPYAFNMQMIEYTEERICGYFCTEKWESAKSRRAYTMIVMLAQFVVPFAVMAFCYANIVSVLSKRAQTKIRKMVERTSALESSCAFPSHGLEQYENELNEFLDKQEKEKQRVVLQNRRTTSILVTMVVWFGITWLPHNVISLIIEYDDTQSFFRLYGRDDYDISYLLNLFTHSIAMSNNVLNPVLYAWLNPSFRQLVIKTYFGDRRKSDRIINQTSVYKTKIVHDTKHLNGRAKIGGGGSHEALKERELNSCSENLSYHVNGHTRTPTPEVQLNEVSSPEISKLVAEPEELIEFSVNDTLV

NPR-11 = biological target: T3, NPR-11 (Caenorhabditis elegans, UniProt Q18179); assay: cAMP reporter gene assay; format: cell-based, C. elegans; details: wild type NPR-11
T3 sequence (Q18179 1-402): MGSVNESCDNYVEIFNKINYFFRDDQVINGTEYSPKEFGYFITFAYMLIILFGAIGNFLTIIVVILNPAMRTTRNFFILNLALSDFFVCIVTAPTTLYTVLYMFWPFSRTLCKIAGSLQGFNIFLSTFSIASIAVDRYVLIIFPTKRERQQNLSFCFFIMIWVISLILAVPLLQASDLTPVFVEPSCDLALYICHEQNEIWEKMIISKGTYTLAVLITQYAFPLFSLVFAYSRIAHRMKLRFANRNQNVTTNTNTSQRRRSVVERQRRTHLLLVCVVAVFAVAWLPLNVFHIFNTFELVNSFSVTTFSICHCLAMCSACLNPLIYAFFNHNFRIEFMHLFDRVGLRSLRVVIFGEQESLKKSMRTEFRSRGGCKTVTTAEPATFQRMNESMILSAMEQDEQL

NPR-1 [3] = biological target: T1, NPR-1; assay: NanoBRET displacement binding assay, Nluc-NPR-1; design: species or system C. elegans; details: HEK293 membranes, 100 nM [TAMRA]-FLP-21 tracer, 90 min, room temperature
[4] = biological target: T2, Nluc-NPR-1-eYFP (C. elegans neuropeptide receptor NPR-1, wild type) (C. elegans); remark: listed apart in the source
NPR-1 mutants [5] = biological target: NPR-1 mutants (Caenorhabditis elegans, UniProt Q18534, E180D); assay: cAMP reporter gene assay; format: cell-based, C. elegans; details: NPR-1 E^5.27D
NPR-1 mutants [6] = biological target: NPR-1 mutants (Caenorhabditis elegans, UniProt Q18534, E301A); assay: cAMP reporter gene assay; format: cell-based, C. elegans; details: NPR-1 E^6.59A
NPR-11 mutants = NPR-11 mutants (Caenorhabditis elegans, UniProt Q18179, E196D); assay: cAMP reporter gene assay; format: cell-based, C. elegans; details: NPR-11 E^5.23D
[7] = biological target: Nluc-NPR-11-eYFP Q3.32H (C. elegans) (UniProt Q18179); assay: FRET or BRET
[8] = biological target: T4, Nluc-NPR-11-eYFP (C. elegans neuropeptide receptor NPR-11, wild type) (C. elegans, UniProt Q18179 1-402); assay: FRET or BRET
T4 sequence (looked up): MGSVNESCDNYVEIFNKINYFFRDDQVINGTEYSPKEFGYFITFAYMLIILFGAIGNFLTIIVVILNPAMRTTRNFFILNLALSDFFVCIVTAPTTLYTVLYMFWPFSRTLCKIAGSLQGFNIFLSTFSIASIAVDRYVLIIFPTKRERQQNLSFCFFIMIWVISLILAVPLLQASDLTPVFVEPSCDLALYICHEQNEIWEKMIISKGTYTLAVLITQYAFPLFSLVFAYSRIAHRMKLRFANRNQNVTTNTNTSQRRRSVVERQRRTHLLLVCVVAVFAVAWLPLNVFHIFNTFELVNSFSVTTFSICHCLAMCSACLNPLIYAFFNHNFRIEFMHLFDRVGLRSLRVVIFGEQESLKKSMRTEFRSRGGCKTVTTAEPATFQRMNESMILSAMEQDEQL

[9] = biological target: T2, Nluc-NPR-1-eYFP (C. elegans neuropeptide receptor NPR-1, wild type) (C. elegans); remark: listed apart in the source
[10] = biological target: NPR-11-eYFP E5.23D (C. elegans), Q18179
[11] = biological target: T5, Nluc-NPR-1-eYFP (C. elegans neuropeptide receptor NPR-1, wild type) (C. elegans, UniProt Q18534 1-457); assay: cell-based or functional assay
T5 sequence (looked up): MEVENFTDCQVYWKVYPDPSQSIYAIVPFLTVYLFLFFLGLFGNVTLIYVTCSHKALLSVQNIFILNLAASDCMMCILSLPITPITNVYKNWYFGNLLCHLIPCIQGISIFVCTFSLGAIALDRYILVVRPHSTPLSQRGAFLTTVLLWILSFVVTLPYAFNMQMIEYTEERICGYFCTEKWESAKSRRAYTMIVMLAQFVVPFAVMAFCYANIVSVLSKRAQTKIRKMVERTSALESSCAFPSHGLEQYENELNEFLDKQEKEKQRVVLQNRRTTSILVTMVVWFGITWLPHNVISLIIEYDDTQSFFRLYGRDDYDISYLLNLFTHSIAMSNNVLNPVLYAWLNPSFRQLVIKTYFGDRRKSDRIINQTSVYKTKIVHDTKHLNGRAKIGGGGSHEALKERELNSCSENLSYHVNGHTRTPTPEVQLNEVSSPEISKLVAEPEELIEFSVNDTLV

[12] = biological target: Nluc-NPR-11-eYFP Q3.32A (C. elegans) (UniProt Q18179); assay: FRET or BRET
[13] = biological target: T4, Nluc-NPR-11-eYFP (C. elegans …); assay: cell-based or functional assay
[14] = biological target: T5, Nluc-NPR-1-eYFP (C. elegans …); assay: FRET or BRET
[15] = biological target: T2, Nluc-NPR-1-eYFP (C. elegans neuropeptide receptor NPR-1, wild type) (C. elegans); remark: listed apart in the source
[16] = biological target: Nluc-NPR-11-eYFP Q3.32A (C. elegans) (UniProt Q18179)
[17] = biological target: NPR-1-eYFP E6.59A (C. elegans), Q18534
[18] = biological target: NPR-1-eYFP E6.59D (C. elegans), Q18534
[19] = biological target: NPR-1-eYFP E5.27D (C. elegans), Q18534

Chain of NPR-1 mutants (Caenorhabditis elegans, UniProt Q18534, E180D) (Q18534 whole entry E180D): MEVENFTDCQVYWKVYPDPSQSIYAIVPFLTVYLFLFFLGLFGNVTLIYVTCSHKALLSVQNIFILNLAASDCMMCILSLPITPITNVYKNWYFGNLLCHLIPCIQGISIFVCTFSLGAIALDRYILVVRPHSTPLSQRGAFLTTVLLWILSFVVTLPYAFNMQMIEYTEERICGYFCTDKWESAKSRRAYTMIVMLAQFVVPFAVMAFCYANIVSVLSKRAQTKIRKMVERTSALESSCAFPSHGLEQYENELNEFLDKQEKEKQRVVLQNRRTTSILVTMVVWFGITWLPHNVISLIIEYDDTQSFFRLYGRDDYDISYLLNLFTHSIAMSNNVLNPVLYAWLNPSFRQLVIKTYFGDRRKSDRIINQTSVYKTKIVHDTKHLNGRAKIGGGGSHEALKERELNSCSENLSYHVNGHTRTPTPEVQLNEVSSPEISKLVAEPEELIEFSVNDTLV
Chain of NPR-1 mutants (Caenorhabditis elegans, UniProt Q18534, E301A) (Q18534 whole entry E301A): as the sequence (Q18534 whole entry E180D) above, with D180E, E301A counted along it
Chain of NPR-11 mutants (Q18179 whole entry E196D): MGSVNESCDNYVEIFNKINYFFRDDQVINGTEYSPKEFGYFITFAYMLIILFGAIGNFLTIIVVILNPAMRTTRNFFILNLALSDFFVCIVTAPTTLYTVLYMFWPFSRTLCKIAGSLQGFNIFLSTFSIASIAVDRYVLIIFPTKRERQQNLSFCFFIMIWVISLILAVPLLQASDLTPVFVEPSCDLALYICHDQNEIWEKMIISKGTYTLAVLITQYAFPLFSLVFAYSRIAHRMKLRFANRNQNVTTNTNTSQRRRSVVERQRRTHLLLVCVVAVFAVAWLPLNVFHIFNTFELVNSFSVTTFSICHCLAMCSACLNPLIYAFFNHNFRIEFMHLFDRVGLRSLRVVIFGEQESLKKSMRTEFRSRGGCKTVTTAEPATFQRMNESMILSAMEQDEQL

Molecule: [F9Cha]-FLP-21 (peptide)
- cAMP reporter gene assay (Gi/o), EC50 shift against wild type FLP-21 [2]: > 600 fold

Molecule: [F^9Cha]-FLP-21: FLP-21 variant, F^9 replaced with cyclohexylalanine
- EC50 shift (loss of potency) relative to wild type FLP-21 (NPR-1 [1]): > 600 fold
- EC50 shift relative to wild type FLP-21 (NPR-11): 20 fold

Molecule: [P^6A]-FLP-21: FLP-21 variant, P^6 to alanine (GLGPRALRF-NH2)
- EC50 shift (loss of potency) relative to wild type FLP-21 (NPR-1 [1]): 34 fold
- EC50 shift relative to wild type FLP-21 (NPR-11): 18 fold

Molecule: [R5hArg]-FLP-21 (peptide)
- cAMP reporter gene assay (Gi/o), EC50 of receptor activation [4]: 5.2 nM

Molecule: [R^8hArg]-FLP-21: FLP-21 variant, R^8 replaced with homoarginine
- EC50 shift (loss of potency) relative to wild type FLP-21 (NPR-1 [1]): > 900 fold and 976 fold
- EC50 shift relative to wild type FLP-21 at the same receptor mutant (NPR-1 mutants [5]): 34 fold
- EC50 shift relative to wild type FLP-21 at the same receptor mutant (NPR-1 mutants [6]): 91 fold
- EC50 shift relative to wild type FLP-21 (NPR-11): 135 fold

Molecule: [R^15A]-FLP-34–1: FLP-34–1 variant, R^15 to alanine (ADISTFASAINNAGALRY-NH2)
- EC50 shift relative to wild type FLP-34–1 (NPR-11): > 900 fold

Molecule: [R^17hArg]-FLP-34–1: FLP-34–1 variant, R^17 to homoarginine
- EC50 shift relative to wild type FLP-34–1 (NPR-11): > 70 fold and 77 fold
- EC50 shift compared to wild type FLP-34–1 at the same receptor mutant (NPR-11 mutants): 0.9 fold

B1: [TAMRA]-FLP-34–1 (peptide)
peptide: {TAMRA}-ADISTFASAINNAGRLRY-NH2
- fold reduction of binding affinity against wild type NPR-11 [7]: 4 fold

B5: [TAMRA]-FLP-21 (peptide)
peptide: {TAMRA}-GLGPRPLRF-NH2
- cAMP reporter gene assay (Gi/o), reduction of potency against wild type FLP-21 [11]: 12 fold
- Kd [12]: 190 nM

B7: FLP-21 (GLGPRPLRFamide) (peptide)
peptide: GLGPRPLRF-NH2
- Ki [8]: 107 nM

B9: [R5A]-FLP-21 (peptide)
peptide: GLGPAPLRF-NH2
- cAMP reporter gene assay (Gi/o), EC50 shift against wild type FLP-21 [15]: 368 fold

B11: [P6A]-FLP-21 (peptide)
peptide: GLGPRALRF-NH2
- cAMP reporter gene assay (Gi/o), decrease of activity against wild type FLP-21 [15]: 34 fold

Results, then the molecule that gave them:

- EC50 shift (loss of potency) relative to wild type FLP-21 (NPR-1 [1]): 3 fold
Molecule: Ac-FLP-21: FLP-21 acetylated at the free N terminus (Ac-GLGPRPLRF-NH2)

- EC50 shift (loss of potency) relative to wild type FLP-21 (NPR-1 [1]): 14 fold
- receptor activation in words (NPR-11): wild type-like activity
- Ki shift relative to wild type FLP-21 (NPR-1 [3]): 11 fold
Molecule: [F^9Y]-FLP-21: FLP-21 variant, F^9 to tyrosine (GLGPRPLRY-NH2)

- EC50 shift relative to wild type FLP-34–1 (NPR-11): > 140 fold
Molecule: [L^16A]-FLP-34–1: FLP-34–1 variant, L^16 to alanine (ADISTFASAINNAGRARY-NH2)

- receptor activation in words (NPR-11): impaired activation
Molecule: [L^16Q]-FLP-34–1: FLP-34–1 variant, L^16 to glutamine (ADISTFASAINNAGRQRY-NH2)

- EC50 shift (loss of potency) relative to wild type FLP-21 (NPR-1 [1]): 368 fold
Molecule: [R^5A]-FLP-21: FLP-21 variant, R^5 to alanine (GLGPAPLRF-NH2)

- Ki [8]: 107 nM
B2: FLP-34–1 (ADISTFASAINNAGRLRYamide) (peptide)
peptide: ADISTFASAINNAGRLRY-NH2

- cAMP reporter gene assay (Gi/o), reduction of potency against wild type FLP-21 [9]: 3 fold
B3: N-terminally acetylated FLP-21 (peptide)
peptide: Ac-GLGPRPLRF-NH2

- cAMP reporter gene assay (Gi/o), EC50 against the wild type receptor [10]: 92 fold
B4: FLP-34–1 (…amide) (peptide)
peptide: ADISTFASAINNAGRLRY-NH2

- cAMP reporter gene assay (Gi/o), decrease of activity against wild type FLP-21 [11]: 497 fold
- cAMP reporter gene assay (Gi/o), EC50 shift against wild type FLP-21 [13]: 10 fold
- fold reduction of Ki against FLP-21 [12]: 100 fold
- fold reduction of Ki against FLP-21 [8]: < 10 fold
B6: [L7A]-FLP-21 (peptide)
peptide: GLGPRPARF-NH2

- cAMP reporter gene assay (Gi/o), EC50 shift against wild type FLP-21 [11]: 14 fold
- fold shift of Ki against wild type FLP-21 [14]: 11 fold
B8: [F9Y]-FLP-21 (peptide)
peptide: GLGPRPLRY-NH2

- cAMP reporter gene assay (Gi/o), EC50 of receptor activation [16]: 0.1 nM
- cAMP reporter gene assay (Gi/o), EC50 of receptor activation [17]: 20 nM
- cAMP reporter gene assay (Gi/o), EC50 of receptor activation [18]: 0.13 nM
- cAMP reporter gene assay (Gi/o), EC50 of receptor activation [19]: 495 nM
B10: FLP-21 (…amide) (peptide)
peptide: GLGPRPLRF-NH2
